Reference: PMC3437384

Tests used:
[1] = molecular target: cTnI switch peptide 147-163 (Homo sapiens) (UniProt P19429); experiment: NMR; details: cited from earlier work
[2] = molecular target: N-domain of cardiac troponin C with the L48Q mutation, cNTnC(L48Q) (UniProt P63316); experiment: NMR titration
[3] = molecular target: cardiac troponin I (cTnI), rat wild type (rat) (UniProt P23693); experiment: ITC
Chain of cardiac troponin I (cTnI), rat wild type (rat) (P23693 whole entry): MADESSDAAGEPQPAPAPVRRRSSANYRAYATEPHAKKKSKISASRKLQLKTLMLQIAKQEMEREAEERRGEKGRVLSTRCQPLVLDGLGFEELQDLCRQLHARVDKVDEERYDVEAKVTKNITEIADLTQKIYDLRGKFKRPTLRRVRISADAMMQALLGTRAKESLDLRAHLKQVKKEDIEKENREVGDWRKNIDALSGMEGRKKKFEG

Substance: cNTnC N-terminal domain (from UniProt P63316)
- Kd [1]: 150 µM

Substance: cTnI peptide corresponding to residues 147-163, cTnI_(147-163) switch peptide
- Kd [2]: 61 µM

Substance: cardiac troponin C L48Q variant, cTnC(L48Q) (from UniProt Q4PP99 1-161) (natural protein)
- Kd [3]: 0.132 µM
- dH [3]: -5.28 kcal/mol
